Results published in PMC3722562.

Assays:
[1] = target: PSMA on PC3(PSMA+) cells (human?) (UniProt Q04609); experiment: NIR cell uptake (QUSIM); conditions: 10 nM, 15 min, 37 C, trypsin wash, 2'-fluoro pyrimidines, Cell assays mostly in DPBS at 37 C (4 C for surface binding), washes DPBS, 0.5 M NaCl +/- 0.2 N acetic acid or trypsin, Qdot flow after 10% FBS/DPBS block …
HER2-GST fusion (human) = HER2-GST fusion (human) (UniProt P04626); experiment: not stated (cited); conditions: 2'-fluoro pyrimidines (general statement); Cell assays mostly in DPBS at 37 C (4 C for surface binding), washes DPBS, 0.5 M NaCl +/- 0.2 N acetic acid or trypsin; Qdot flow after 10% FBS/DPBS block …; cited from earlier work
[2] = target: PSMA (prostate specific membrane antigen) (human) (UniProt Q04609); experiment: not stated (cited); conditions: 2'-fluoro pyrimidines; Cell assays mostly in DPBS at 37 C (4 C for surface binding), washes DPBS, 0.5 M NaCl +/- 0.2 N acetic acid or trypsin; Qdot flow after 10% FBS/DPBS block …; cited from earlier work
PSMA (prostate specific membrane antigen) (human), sequence (Q04609 whole entry): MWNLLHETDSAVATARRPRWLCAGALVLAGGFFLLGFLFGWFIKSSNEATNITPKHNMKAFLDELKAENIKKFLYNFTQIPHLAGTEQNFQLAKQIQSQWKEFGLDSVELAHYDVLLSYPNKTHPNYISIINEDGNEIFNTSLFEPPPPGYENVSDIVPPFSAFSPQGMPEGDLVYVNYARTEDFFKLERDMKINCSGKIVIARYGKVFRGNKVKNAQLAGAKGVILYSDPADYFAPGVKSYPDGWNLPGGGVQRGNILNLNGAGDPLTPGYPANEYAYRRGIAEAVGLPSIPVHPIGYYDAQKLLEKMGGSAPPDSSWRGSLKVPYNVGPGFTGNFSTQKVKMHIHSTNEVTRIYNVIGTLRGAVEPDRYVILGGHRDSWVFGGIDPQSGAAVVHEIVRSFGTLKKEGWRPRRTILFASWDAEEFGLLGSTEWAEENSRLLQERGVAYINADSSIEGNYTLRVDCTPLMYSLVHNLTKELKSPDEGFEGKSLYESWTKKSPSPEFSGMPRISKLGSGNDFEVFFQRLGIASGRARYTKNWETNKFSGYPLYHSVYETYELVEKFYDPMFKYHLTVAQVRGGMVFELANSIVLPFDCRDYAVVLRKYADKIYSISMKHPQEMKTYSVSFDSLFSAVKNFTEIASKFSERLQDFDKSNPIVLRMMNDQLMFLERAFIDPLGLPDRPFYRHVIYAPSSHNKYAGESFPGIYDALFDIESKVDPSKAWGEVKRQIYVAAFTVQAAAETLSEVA

TrkB (mouse) (mouse) = TrkB (mouse) (mouse) (UniProt P15209); experiment: not stated (cited); conditions: 2'-fluoro pyrimidines; Cell assays mostly in DPBS at 37 C (4 C for surface binding), washes DPBS, 0.5 M NaCl +/- 0.2 N acetic acid or trypsin; Qdot flow after 10% FBS/DPBS block …; cited from earlier work
TrkB (mouse) (mouse), sequence (P15209 whole entry): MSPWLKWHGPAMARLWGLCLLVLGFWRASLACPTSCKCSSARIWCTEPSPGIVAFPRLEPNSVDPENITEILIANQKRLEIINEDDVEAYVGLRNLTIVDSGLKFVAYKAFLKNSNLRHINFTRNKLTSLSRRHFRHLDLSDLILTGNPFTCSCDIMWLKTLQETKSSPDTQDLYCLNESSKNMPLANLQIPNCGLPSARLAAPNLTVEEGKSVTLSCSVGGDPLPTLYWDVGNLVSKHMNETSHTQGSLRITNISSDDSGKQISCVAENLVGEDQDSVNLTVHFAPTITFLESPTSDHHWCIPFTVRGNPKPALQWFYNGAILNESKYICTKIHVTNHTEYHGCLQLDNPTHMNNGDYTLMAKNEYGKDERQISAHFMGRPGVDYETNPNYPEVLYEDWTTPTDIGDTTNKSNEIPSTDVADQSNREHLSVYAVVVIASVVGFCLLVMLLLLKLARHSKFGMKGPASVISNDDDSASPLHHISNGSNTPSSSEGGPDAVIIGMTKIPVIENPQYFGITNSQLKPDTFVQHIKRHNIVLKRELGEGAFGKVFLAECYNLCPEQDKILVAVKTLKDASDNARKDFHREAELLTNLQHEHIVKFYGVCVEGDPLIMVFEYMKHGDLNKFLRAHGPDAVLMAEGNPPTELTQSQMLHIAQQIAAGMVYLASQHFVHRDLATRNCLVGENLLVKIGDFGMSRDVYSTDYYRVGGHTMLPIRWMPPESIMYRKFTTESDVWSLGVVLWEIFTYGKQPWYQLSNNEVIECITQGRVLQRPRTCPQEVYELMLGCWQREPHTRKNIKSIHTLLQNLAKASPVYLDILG

HER2 (rat) (rat) = HER2 (rat) (rat) (UniProt P06494); experiment: not stated (cited); conditions: 2'-fluoro pyrimidines; Cell assays mostly in DPBS at 37 C (4 C for surface binding), washes DPBS, 0.5 M NaCl +/- 0.2 N acetic acid or trypsin; Qdot flow after 10% FBS/DPBS block …; cited from earlier work
HER2 (rat) (rat), sequence (P06494 whole entry): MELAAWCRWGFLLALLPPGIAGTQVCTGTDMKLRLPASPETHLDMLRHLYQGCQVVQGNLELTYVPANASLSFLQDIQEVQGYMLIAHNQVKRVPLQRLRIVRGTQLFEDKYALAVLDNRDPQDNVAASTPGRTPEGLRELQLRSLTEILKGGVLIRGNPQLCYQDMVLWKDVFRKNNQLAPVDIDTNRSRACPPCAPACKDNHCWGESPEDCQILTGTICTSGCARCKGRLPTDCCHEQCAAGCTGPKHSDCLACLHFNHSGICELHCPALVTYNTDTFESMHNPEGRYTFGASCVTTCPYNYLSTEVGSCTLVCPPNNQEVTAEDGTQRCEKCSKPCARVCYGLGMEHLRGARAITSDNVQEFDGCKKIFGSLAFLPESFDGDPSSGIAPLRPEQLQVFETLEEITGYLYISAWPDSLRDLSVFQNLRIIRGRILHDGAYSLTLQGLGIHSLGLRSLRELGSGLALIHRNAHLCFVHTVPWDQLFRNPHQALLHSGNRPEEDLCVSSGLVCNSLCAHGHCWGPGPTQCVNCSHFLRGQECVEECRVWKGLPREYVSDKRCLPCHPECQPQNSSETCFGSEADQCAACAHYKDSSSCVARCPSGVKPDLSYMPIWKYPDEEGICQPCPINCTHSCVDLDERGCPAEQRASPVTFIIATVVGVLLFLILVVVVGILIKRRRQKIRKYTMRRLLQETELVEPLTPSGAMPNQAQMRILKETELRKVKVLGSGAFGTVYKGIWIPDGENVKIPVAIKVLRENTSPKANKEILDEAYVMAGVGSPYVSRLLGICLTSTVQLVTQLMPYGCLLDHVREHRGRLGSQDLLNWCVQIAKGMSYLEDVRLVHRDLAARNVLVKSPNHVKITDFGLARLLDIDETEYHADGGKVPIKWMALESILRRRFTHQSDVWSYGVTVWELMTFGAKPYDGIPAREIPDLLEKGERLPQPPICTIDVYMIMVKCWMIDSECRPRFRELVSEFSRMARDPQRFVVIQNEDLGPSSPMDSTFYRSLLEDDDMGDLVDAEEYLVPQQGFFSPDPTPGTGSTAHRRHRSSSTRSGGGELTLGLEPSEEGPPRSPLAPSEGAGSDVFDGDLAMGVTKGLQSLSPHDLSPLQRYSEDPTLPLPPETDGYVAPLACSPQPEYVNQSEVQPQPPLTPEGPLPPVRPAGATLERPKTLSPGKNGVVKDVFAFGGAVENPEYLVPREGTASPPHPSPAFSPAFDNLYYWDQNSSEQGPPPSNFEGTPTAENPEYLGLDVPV

PSMA on PC3(PSMA+) cells (human?), sequence (Q04609 whole entry, the tested form may be a part): as the sequence (Q04609 whole entry) above

GGGACCGAAAAAGACCUGGCUUCUAUACUAAGUCUACGUUCCC [A9g.6]
binding signal (% of input internalized) [1]: < 0.5

AGCCGCGAGGGGAGGGAUAGGGUAGGGCGCGGCU [hHER2-apt]
Kd (HER2-GST fusion (human)): 3.5 nM

GGGACCGAAAAAGACCUGACUUCUAUACUAAGUCUACGUUCCC [A9g]
Kd [2]: 5 nM
binding signal (% of input internalized) ([1]; <1% in PSMA- cells): 13

GGGAGGACGAUGCGGUCGUAUUAUCCGCUGCACGCCAGACGACUCGCCCGA [C4-3]
Kd (TrkB (mouse) (mouse)): 2 nM

GGGAGGACGAUGCGGUCCUGUCGUCUGUUCGUCCCCAGACGACUCGCCCGA [E1]
Kd (HER2 (rat) (rat)): 60.8 nM
